The record followed here is PMC3164629.

One test has as its target human mAb 4E10 (human). Nature of the test: SPR.
The next test has as its target recombinant soluble CD4 (UniProt P01730). Nature of the test: SPR. A general note: Surface plasmon resonance follows binding to a sensor surface in real time, without labels.

human mAb 4E10 (human), sequence (light, as listed by the source, chain 2 of 2, other chains not shown): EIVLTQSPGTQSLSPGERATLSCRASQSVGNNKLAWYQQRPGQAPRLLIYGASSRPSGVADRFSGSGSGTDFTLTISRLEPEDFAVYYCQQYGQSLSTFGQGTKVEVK

In the case of “CON-S gp140CFI Env, natively deglycosylated with PNGase F 500 U per µg”, in the test with human mAb 4E10 (human), the fold enhancement of Kd against WT glycosylated CON-S gp140 worked out at 7 fold. Also, the dissociation constant Kd (usually the concentration at which binding is half-saturated) in the test with recombinant soluble CD4 is 9.4 nM. On to “HIV-1 JRFL gp140CF Env, WT glycosylated (domain or fragment)”, for which, in the test with recombinant soluble CD4, the Kd is 5.7 nM. As for “HIV-1 JRFL gp140CF Env, natively deglycosylated with PNGase F 500 U per µg (domain or fragment)”, the Kd with recombinant soluble CD4 came to 35.3 nM. The same measure, in the same setting: the same measure for “group M consensus gp140 Env, CON-S gp140CFI, WT glycosylated”: 7.4 nM.
